Measured values published in the supplement of paper PMC10126150.
± gives the standard deviation of the averaged measurements.

system: ATP; assay: switch fluorescence ratio, 500 uM ATP over buffer (Cy3 cluster intensity, sum of 5 cycles each) (fold (ratio)); higher = stronger signal-on switching upon ATP binding; sequences stand for … in TCGTCGGCAGCGTCAGATGTGTATAAGAGACAGTTTTTTTTTTTTTTTTTTTTTTTTT…TC; settings: aptamer strand: ATP DNA aptamer (quencher-CACCTGGGGGAGTATTGCGGAGGAAGG + anchor), 100 nM annealed; ATP concentration: 500 uM
Summary of the method: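 For every switch-domain sequence, the fluorescence ratio is the mean of per-cluster values, each being summed target-cycle Cy3 intensity over summed buffer-cycle Cy3 intensity. Clusters outside 100-1000 RFU were excluded. On a modified Illumina MiSeq flow-cell, the Cy3-labelled switching-strand clusters were annealed to 100 nM quencher-labelled ATP aptamer, imaged in selection buffer and then after 15 min with 500 uM ATP at 22 °C. Five such cycles were run, with NaOH stripping and re-annealing between them.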
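Further: ATP exposure 15 min at 22 °C before imaging.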

Sequence | switch fluorescence ratio
CGGGGTCAAC | 1.24 ± 0.39
CGGGGTCAGT | 1.02 ± 0.014
CGGGGTCATG | 0.991 ± 0.024
CGGGGTCCTA | 1.01 ± 0.014
CGGGGTCCTG | 1.03 ± 0.054
CGGGGTCTGT | 0.999 ± 0.022
CGGGGTGGGA | 1.01 ± 0.029
CGGGGTGTGC | 1.01 ± 0.031
CGGGGTGTTC | 0.9849 ± 0.0049
CGGGGTTGCA | 0.978 ± 0.022
CGGGGTTGTG | 0.966 ± 0.014
CGGGGTTTCG | 0.993 ± 0.028
CGGGTAGGGC | 1.01 ± 0.032
CGGGTAGGGG | 0.996 ± 0.069
CGGGTAGTGG | 0.995 ± 0.032
CGGGTATACT | 1.1 ± 0.092
CGGGTATGGG | 0.984 ± 0.03
CGGGTCAACT | 0.963 ± 0.014
CGGGTCAGTG | 0.968 ± 0.04
CGGGTCGCTT | 0.9738 ± 0.004
CGGGTCGGGC | 0.991 ± 0.013
CGGGTCTCGA | 1.03 ± 0.04
CGGGTCTTGC | 0.981 ± 0.035
CGGGTGACGG | 1.05 ± 0.057
CGGGTGATTA | 1 ± 0.035

Sequence | switch fluorescence ratio
CGGGTGCCAT | 0.994 ± 0.018
CGGGTGCTTT | 1.05 ± 0.013
CGGGTGGAGC | 0.952 ± 0.011
CGGGTGGAGG | 1.02 ± 0.018
CGGGTGGTTT | 0.988 ± 0.03
CGGGTGTAGG | 1.02 ± 0.062
CGGGTTAAAC | 1 ± 0.027
CGGGTTAGCC | 0.998 ± 0.021
CGGGTTAGTA | 1.02 ± 0.042
CGGGTTCAGA | 1.051 ± 0.0054
CGGGTTGTGG | 1.02 ± 0.062
CGGGTTTAAT | 0.94 ± 0.029
CGGGTTTGAA | 0.972 ± 0.024
CGGTAAAGAT | 1 ± 0.058
CGGTAACCGC | 0.994 ± 0.098
CGGTAACGAA | 1.04 ± 0.014
CGGTACAAGT | 1 ± 0.032
CGGTACATTG | 1.004 ± 0.0053
CGGTACCGGG | 1.022 ± 0.0061
CGGTACTGAT | 1.0316 ± 0.00064
CGGTAGCGGG | 1.008 ± 0.007
CGGTAGGCGA | 0.985 ± 0.027
CGGTAGGGGA | 1.023 ± 0.01
CGGTAGGGGC | 0.968 ± 0.015
CGGTAGGTGG | 1.01 ± 0.057

Sequence | switch fluorescence ratio
CGGTAGGTTT | 0.9898 ± 0.0057
CGGTAGTTAC | 1.25 ± 0.059
CGGTATAGCA | 0.971 ± 0.027
CGGTATAGTT | 0.988 ± 0.022
CGGTATGGGA | 0.979 ± 0.044
CGGTATGGTA | 0.972 ± 0.023
CGGTCAAGGT | 1.003 ± 0.0076
CGGTCACTG | 1.002 ± 0.0069
CGGTCACTGT | 1.03 ± 0.038
CGGTCAGGGC | 1.02 ± 0.014
CGGTCAGGGG | 1.11 ± 0.023
CGGTCATACT | 1.21 ± 0.029
CGGTCGCCGG | 1.01 ± 0.02
CGGTCGCGTG | 0.988 ± 0.02
CGGTCGCTTG | 1.02 ± 0.032
CGGTGAAGCC | 0.984 ± 0.019
CGGTGACGCG | 0.982 ± 0.028
CGGTGACTCG | 1.03 ± 0.029
CGGTGAGCGA | 1.03 ± 0.044
CGGTGAGGGG | 0.989 ± 0.011
CGGTGAGTTG | 1.03 ± 0.04
CGGTGATATT | 1.03 ± 0.052
CGGTGCTTTT | 1 ± 0.011
CGGTGGGCTA | 1.013 ± 0.0052
CGGTGGGGGT | 0.988 ± 0.022

Sequence | switch fluorescence ratio
CGGTGGGGTA | 1.01 ± 0.033
CGGTGTAGCT | 1.03 ± 0.019
CGGTGTGCGG | 0.995 ± 0.037
CGGTGTTAGC | 0.976 ± 0.0015
CGGTGTTGGC | 1.05 ± 0.081
CGGTGTTTTC | 0.972 ± 0.046
CGGTTAAAGG | 0.974 ± 0.03
CGGTTAAGGG | 0.982 ± 0.038
CGGTTAGAGG | 0.989 ± 0.0013
CGGTTAGATA | 0.987 ± 0.019
CGGTTATTGA | 1.02 ± 0.022
CGGTTCGCCT | 0.998 ± 0.016
CGGTTCGGCT | 1.04 ± 0.047
CGGTTCTACG | 1.009 ± 0.0053
CGGTTCTGTG | 1 ± 0.012
CGGTTGACGG | 0.9494 ± 0.0017
CGGTTGAGTT | 1.02 ± 0.04
CGGTTGCTTG | 0.996 ± 0.034
CGGTTGGGGA | 0.985 ± 0.036
CGGTTGGTTT | 1.02 ± 0.017
CGGTTGTTTT | 1.023 ± 0.0065
CGGTTTAGCG | 0.98 ± 0.029
CGGTTTAGGC | 0.93 ± 0.026
CGGTTTATTG | 1 ± 0.036
CGGTTTCTCG | 0.982 ± 0.02

Sequence | switch fluorescence ratio
CGGTTTGGGA | 0.994 ± 0.035
CGGTTTGTAT | 0.985 ± 0.023
CGGTTTTAGC | 0.968 ± 0.042
CGGTTTTATT | 0.982 ± 0.028
CGGTTTTGAG | 1.01 ± 0.034
CGGTTTTGTG | 0.962 ± 0.031
CGTAAAACGC | 1.02 ± 0.03
CGTAAAAGGC | 0.994 ± 0.027
CGTAAAGCAG | 1.01 ± 0.061
CGTAAAGGGG | 0.983 ± 0.026
CGTAAATGTG | 0.9668 ± 0.0066
CGTAACAATG | 1.1 ± 0.034
CGTAACTGGT | 0.978 ± 0.018
CGTAAGCGAG | 1.03 ± 0.062
CGTAAGGGGA | 1.05 ± 0.064
CGTAAGTGCA | 1 ± 0.024
CGTAATAGTC | 1.81 ± 0.15
CGTAATGGCA | 1.01 ± 0.017
CGTAATGTCT | 1.06 ± 0.031
CGTAATGTTA | 1.01 ± 0.019
CGTACATGAG | 1.02 ± 0.037
CGTACATGAT | 1.02 ± 0.022
CGTACGAAGG | 0.971 ± 0.028
CGTACGAATG | 0.9769 ± 0.007
CGTACGGTCT | 1.05 ± 0.059

Sequence | switch fluorescence ratio
CGTACGTGGC | 1.125 ± 0.0035
CGTACGTTG | 1 ± 0.022
CGTACTGAAA | 1.04 ± 0.0087
CGTACTGTGG | 0.9977 ± 0.0099
CGTAGATACA | 1.03 ± 0.036
CGTAGCGGGG | 1.11 ± 0.022
CGTAGGATGT | 1.02 ± 0.044
CGTAGGGGTA | 1.11 ± 0.32
CGTAGGTGTG | 1.02 ± 0.021
CGTAGTAACT | 1.11 ± 0.022
CGTAGTATAG | 1.24 ± 0.017
CGTAGTCTGG | 1.05 ± 0.038
CGTAGTGGCT | 1.04 ± 0.04
CGTATAAGAG | 0.991 ± 0.027
CGTATAATAG | 1.02 ± 0.04
CGTATATTGT | 0.983 ± 0.061
CGTATCATTG | 0.997 ± 0.042
CGTATCCGGT | 1.03 ± 0.0019
CGTATCCGTA | 0.987 ± 0.042
CGTATGATAG | 1.015 ± 0.0047
CGTATGCAAA | 1.06 ± 0.058
CGTATGCGCA | 0.97 ± 0.028
CGTATGGGAG | 0.9452 ± 0.0036
CGTATGGGTG | 1.02 ± 0.04
CGTATGGTTA | 1.02 ± 0.038

Sequence | switch fluorescence ratio
CGTATTAAGC | 0.955 ± 0.015
CGTATTAGTA | 0.9926 ± 0.0054
CGTATTATTG | 1.01 ± 0.02
CGTATTCGTA | 0.978 ± 0.019
CGTATTTAAA | 1.01 ± 0.013
CGTCAATTAT | 1.14 ± 0.054
CGTCACATGT | 1.009 ± 0.0048
CGTCACCATG | 1.037 ± 0.0026
CGTCATATTA | 1.008 ± 0.0025
CGTCATCCAT | 0.9881 ± 0.0021
CGTCCACGGA | 0.9936 ± 0.0096
CGTCCAGCGT | 1.2 ± 0.067
CGTCCGAAGG | 1.03 ± 0.041
CGTCCGACTT | 1.2 ± 0.089
CGTCCTGGGG | 1.12 ± 0.048
CGTCGCAGAA | 1.093 ± 0.004
CGTCGCGTAT | 1.03 ± 0.021
CGTCGCTGGG | 1.0111 ± 0.00071
CGTCGCTTTT | 1.022 ± 0.0052
CGTCGGGGGG | 1.008 ± 0.008
CGTCGGGGTG | 1 ± 0.017
CGTCGGTAAG | 1.04 ± 0.027
CGTCTAGAA | 0.963 ± 0.048
CGTCTGATAG | 0.99 ± 0.033
CGTCTGGGGG | 1.01 ± 0.021

Sequence | switch fluorescence ratio
CGTGAAAAGA | 0.986 ± 0.033
CGTGAAAGCT | 1.18 ± 0.037
CGTGAAAGTA | 0.996 ± 0.049
CGTGAAGCGT | 0.998 ± 0.039
CGTGAAGTCG | 0.954 ± 0.025
CGTGAATTTT | 1 ± 0.037
CGTGAGGATT | 1 ± 0.022
CGTGAGGGTC | 1 ± 0.059
CGTGAGGTGA | 1.01 ± 0.035
CGTGAGTACG | 0.992 ± 0.01
CGTGATATCT | 1.05 ± 0.018
CGTGATTACT | 1.17 ± 0.11
CGTGCACCGG | 1 ± 0.031
CGTGCCCGGA | 1.03 ± 0.032
CGTGCCCGGT | 1.02 ± 0.022
CGTGCCGTGG | 0.995 ± 0.024
CGTGCGGGAA | 1.004 ± 0.0069
CGTGCTCAGG | 1.162 ± 0.011
CGTGCTTTTT | 1.01 ± 0.018
CGTGGAGGTA | 0.985 ± 0.041
CGTGGAGGTG | 1.07 ± 0.036
CGTGGCAGGG | 0.984 ± 0.033
CGTGGGATAT | 1.0053 ± 0.00092
CGTGGGCGTG | 0.9797 ± 0.0013
CGTGGGGAAG | 0.998 ± 0.023
